{
  "source": "the RNAGym collection of RNA variant scans (doi:10.7554/elife.90254)",
  "parents": {"B1": {"name": "OR4K15 (parent)", "chain": "GUUAACGGUCAUAGGCCAUGGAAACUAGGAGCACCAUUUCGCUGCCAGUGAAGAAAUGAACAAAGAAAAUCUGGGCCAGGCAGGCAUCAAAAGAAAUAGUCUUGCGCUCAACCAGAAAGUCUGUAAUCAUUUUAAGGGUA"}},
  "data": [
    {"variants_of": "B1", "assay": "self-cleavage, relative activity (ratio to wild type); higher = more cleavage; in vitro, sequencing; the parent is a self-cleaving ribozyme", "values": [
      {"variant": "G84A A96U", "self-cleavage": 2.46},
      {"variant": "G84A A96G", "self-cleavage": 2.43},
      {"variant": "A86U U108C", "self-cleavage": 0.02},
      {"variant": "A86G G137A", "self-cleavage": 1.83},
      {"variant": "G83A C109U", "self-cleavage": 0.71},
      {"variant": "A82U A95G", "self-cleavage": 0.51},
      {"variant": "A82U A95C", "self-cleavage": 0.12},
      {"variant": "A86G A98G", "self-cleavage": 0.52},
      {"variant": "A86G U102C", "self-cleavage": 2.36},
      {"variant": "A86G U102G", "self-cleavage": 0.39},
      {"variant": "A86G A140U", "self-cleavage": 1.3},
      {"variant": "A86G A140G", "self-cleavage": 0.77},
      {"variant": "C85U A116U", "self-cleavage": 0.17},
      {"variant": "G83U U108C", "self-cleavage": 0.02},
      {"variant": "A82U G138A", "self-cleavage": 0.17},
      {"variant": "G84A U102G", "self-cleavage": 1.29},
      {"variant": "G84A U102A", "self-cleavage": 2.02},
      {"variant": "G83A A89U", "self-cleavage": 1.82},
      {"variant": "A86U A94G", "self-cleavage": 1.72},
      {"variant": "G84C A114G", "self-cleavage": 0.05},
      {"variant": "A82U A126C", "self-cleavage": 0.05},
      {"variant": "A86U U102A", "self-cleavage": 1.36},
      {"variant": "A86G C113U", "self-cleavage": 0.03},
      {"variant": "A86U U122C", "self-cleavage": 1.74},
      {"variant": "A82U U133C", "self-cleavage": 0.07},
      {"variant": "A82U A116G", "self-cleavage": 0.09},
      {"variant": "U87A A90G", "self-cleavage": 1.29},
      {"variant": "A86G A91C", "self-cleavage": 0.64},
      {"variant": "A82U A140G", "self-cleavage": 0.23},
      {"variant": "G83A U87C", "self-cleavage": 1.21},
      {"variant": "A82G U139C", "self-cleavage": 0.39},
      {"variant": "A82U U127A", "self-cleavage": 0.04},
      {"variant": "A86U A89C", "self-cleavage": 1.51},
      {"variant": "A86C U132C", "self-cleavage": 0.9},
      {"variant": "A86U C112U", "self-cleavage": 0.02},
      {"variant": "A82U", "self-cleavage": 0.14},
      {"variant": "G83A A117U", "self-cleavage": 1.21},
      {"variant": "C85G A86U", "self-cleavage": 0.31},
      {"variant": "A86G U133C", "self-cleavage": 2.05},
      {"variant": "A82G U132A", "self-cleavage": 0.91},
      {"variant": "G84A U108C", "self-cleavage": 0.01},
      {"variant": "A82U A86U", "self-cleavage": 0.32},
      {"variant": "A82U A86G", "self-cleavage": 0.12},
      {"variant": "G84A A86G", "self-cleavage": 1.73},
      {"variant": "A82U A92G", "self-cleavage": 0.22},
      {"variant": "A82U G123A", "self-cleavage": 0.19},
      {"variant": "C85U U120G", "self-cleavage": 0.64},
      {"variant": "A82U U100C", "self-cleavage": 0.5},
      {"variant": "A86G U108C", "self-cleavage": 0.02},
      {"variant": "C85U A96G", "self-cleavage": 1.24},
      {"variant": "A86C U127C", "self-cleavage": 0.83},
      {"variant": "A86U U120C", "self-cleavage": 1.11},
      {"variant": "A82U A94C", "self-cleavage": 0.06},
      {"variant": "A82U A94U", "self-cleavage": 0.21},
      {"variant": "U87A A95G", "self-cleavage": 0.76},
      {"variant": "A86G A135U", "self-cleavage": 2.39},
      {"variant": "A82U A117G", "self-cleavage": 0.28},
      {"variant": "A82U A117U", "self-cleavage": 0.23},
      {"variant": "A82U A117C", "self-cleavage": 0.04},
      {"variant": "A82U A98G", "self-cleavage": 0.06},
      {"variant": "G84U A114G", "self-cleavage": 0.45},
      {"variant": "A86G A89C", "self-cleavage": 0.67},
      {"variant": "A86G A89G", "self-cleavage": 1.42},
      {"variant": "A86G A116G", "self-cleavage": 0.79},
      {"variant": "A82U A125G", "self-cleavage": 0.03},
      {"variant": "A82U A125C", "self-cleavage": 0.29},
      {"variant": "A86C", "self-cleavage": 1.22},
      {"variant": "A86G", "self-cleavage": 1.16},
      {"variant": "A86U", "self-cleavage": 1.77},
      {"variant": "A86G A110G", "self-cleavage": 0.16},
      {"variant": "A86G U132A", "self-cleavage": 1.2},
      {"variant": "A82U A134G", "self-cleavage": 0.16},
      {"variant": "G84U A110U", "self-cleavage": 0.44},
      {"variant": "A86U U124A", "self-cleavage": 1.02},
      {"variant": "A82G U131C", "self-cleavage": 0.45},
      {"variant": "A86G U87C", "self-cleavage": 0.87},
      {"variant": "G83U U127C", "self-cleavage": 0.29},
      {"variant": "U87A A94G", "self-cleavage": 1.64},
      {"variant": "A86C U102C", "self-cleavage": 1.29},
      {"variant": "A86U U127A", "self-cleavage": 2.92},
      {"variant": "A86G U122A", "self-cleavage": 1.61},
      {"variant": "A86G U122C", "self-cleavage": 0.88},
      {"variant": "C85U A91G", "self-cleavage": 0.52},
      {"variant": "A86G G115A", "self-cleavage": 0.14},
      {"variant": "A86G C112A", "self-cleavage": 0},
      {"variant": "C85U A140G", "self-cleavage": 1.26},
      {"variant": "G84A A92U", "self-cleavage": 2.15},
      {"variant": "G84U U108C", "self-cleavage": 0.02},
      {"variant": "A86G A90G", "self-cleavage": 1.13},
      {"variant": "G83U U122A", "self-cleavage": 0.15},
      {"variant": "A86C A114G", "self-cleavage": 0.24},
      {"variant": "G83A G93U", "self-cleavage": 2.03},
      {"variant": "A86U U139A", "self-cleavage": 1.53},
      {"variant": "A86G A94U", "self-cleavage": 2.2},
      {"variant": "A86G U124A", "self-cleavage": 0.4},
      {"variant": "A86G A111G", "self-cleavage": 0.02},
      {"variant": "A86G A111U", "self-cleavage": 0.11},
      {"variant": "A86G U97A", "self-cleavage": 0.97},
      {"variant": "A82U A129G", "self-cleavage": 0.08},
      {"variant": "A86U U130C", "self-cleavage": 1.44},
      {"variant": "G83A U102C", "self-cleavage": 0.44},
      {"variant": "A86U A129G", "self-cleavage": 2.26},
      {"variant": "A86U A129U", "self-cleavage": 1.13},
      {"variant": "A82U U108C", "self-cleavage": 0.01},
      {"variant": "A86U A126G", "self-cleavage": 1.63},
      {"variant": "A82U U122G", "self-cleavage": 0.28},
      {"variant": "A82U C105U", "self-cleavage": 0.01},
      {"variant": "A86G A134G", "self-cleavage": 1.25},
      {"variant": "A82U A111U", "self-cleavage": 0.04},
      {"variant": "A82U C101U", "self-cleavage": 0.04},
      {"variant": "G84C A89G", "self-cleavage": 0.34},
      {"variant": "A86G C109U", "self-cleavage": 0.22},
      {"variant": "A86U A140G", "self-cleavage": 1.62},
      {"variant": "G84C U100C", "self-cleavage": 0.27},
      {"variant": "G83U U102C", "self-cleavage": 0.35},
      {"variant": "A86C U108A", "self-cleavage": 0.16},
      {"variant": "U87A A110C", "self-cleavage": 0.25},
      {"variant": "A86U U100C", "self-cleavage": 2.52},
      {"variant": "G84C A111G", "self-cleavage": 0.02},
      {"variant": "C85U U122C", "self-cleavage": 0.9},
      {"variant": "A82U U97A", "self-cleavage": 0.34},
      {"variant": "A82U U97C", "self-cleavage": 0.06},
      {"variant": "A86G U120C", "self-cleavage": 0.35},
      {"variant": "C85G", "self-cleavage": 1.18},
      {"variant": "C85A", "self-cleavage": 1.18},
      {"variant": "C85U", "self-cleavage": 1.15},
      {"variant": "A86U C101A", "self-cleavage": 0.09},
      {"variant": "A86G A114C", "self-cleavage": 0.06},
      {"variant": "A86G A114U", "self-cleavage": 0.03},
      {"variant": "A86G A114G", "self-cleavage": 0.48},
      {"variant": "G83U C88U", "self-cleavage": 1.11},
      {"variant": "G83A U131C", "self-cleavage": 1.28},
      {"variant": "U87A", "self-cleavage": 1.65},
      {"variant": "A86G U103C", "self-cleavage": 0.45},
      {"variant": "A86G U103A", "self-cleavage": 0.93},
      {"variant": "C85A U100C", "self-cleavage": 0.72},
      {"variant": "G83A U120C", "self-cleavage": 1.74},
      {"variant": "A86U A98G", "self-cleavage": 0.37},
      {"variant": "A82U A135U", "self-cleavage": 0.12},
      {"variant": "A82U A135G", "self-cleavage": 0.22},
      {"variant": "G83A A118G", "self-cleavage": 1.41},
      {"variant": "A86G A96G", "self-cleavage": 0.71},
      {"variant": "A86G A96U", "self-cleavage": 1.37},
      {"variant": "A86G A118U", "self-cleavage": 0.52},
      {"variant": "A86G A118G", "self-cleavage": 1.45},
      {"variant": "A86U A91U", "self-cleavage": 1.77},
      {"variant": "U87A A89C", "self-cleavage": 0.99},
      {"variant": "G83A A86U", "self-cleavage": 2.81},
      {"variant": "G83A A86G", "self-cleavage": 2.15},
      {"variant": "A86U A117U", "self-cleavage": 1.56},
      {"variant": "A82U U87C", "self-cleavage": 0.22},
      {"variant": "A86G A129U", "self-cleavage": 0.57},
      {"variant": "A86G G104A", "self-cleavage": 0.02},
      {"variant": "A86U U87C", "self-cleavage": 1.51},
      {"variant": "A86C C109U", "self-cleavage": 0.25},
      {"variant": "C85A C109A", "self-cleavage": 0.19},
      {"variant": "A86C A95G", "self-cleavage": 1.34},
      {"variant": "C85G A96G", "self-cleavage": 1.02},
      {"variant": "G83U A110G", "self-cleavage": 0.06},
      {"variant": "C85A A125G", "self-cleavage": 0.72},
      {"variant": "U87A A92G", "self-cleavage": 2.61},
      {"variant": "A86G U131C", "self-cleavage": 1.23},
      {"variant": "A82G U133C", "self-cleavage": 0.72},
      {"variant": "A82U U131A", "self-cleavage": 0.07},
      {"variant": "A82U U131C", "self-cleavage": 0.24},
      {"variant": "G84A A117G", "self-cleavage": 2.38},
      {"variant": "G83A U122C", "self-cleavage": 1.87}
    ]}
  ]
}
